{"source": "paper PMC8660638", "target": "RNA polymerase I (13-subunit complex) (Homo sapiens (HEK293T), UniProt O95602;Q9H9Y6;O15160;P0DPB6;Q9P1U0;Q3B726;Q9GZS1;O15446;P19388;P61218;P52434;P53 …)", "assay": "cryo-EM structure; open complex, inactive state, 3.3 A; RRN3 in sample but not bound in this class; downstream duplex traced, bubble not stably bound at active site; EM buffer: 15 mM HEPES pH 7.5, 80 mM (NH4)2SO4, 5 mM MgCl2, 10 mM DTT; scaffold annealed in 20 mM HEPES pH 7.5, 12 mM MgCl2, 100 mM NaCl, 10 mM DTT (1x, from printed 2x); complex incubation temperature not given", "conditions": "protein: native; copies: 1;1;1;1;1;1;1;1;1;1;1;1;1; 43-bp duplex with 12-nt mismatch bubble, blunt"}
{"binder": "Pol I OC scaffold (template/nontemplate DNA, no RNA) (dsDNA) DNA 1: GTACTGAATTAGACAATGCTCTGTGGCTCTAGTACCATGAGCG DNA 2: CGCTCATGGTACTAGGCTTCGGAGAAGTTGTCTAATTCAGTAC", "values": [{"measurement": "binding result", "value": "binds"}]}
